Measurements published in patent US20110039785A1, “POLYPEPTIDE-NUCLEIC ACID CONJUGATES AND USES THEREOF” (Angiochem Inc., priority 2007, published 2011).

Columns and labels:
[1] = system: liver, lung, kidney, spleen, and muscle cells; settings: cited from earlier work
BBB = test: in situ brain perfusion in mice; type: in vivo; settings: 125 nM radiolabeled conjugate; uptake into the brain; FIG. 20
Method: Transport of the conjugates was measured in vivo using in situ brain perfusion in mice. […] The amount present in the brain parenchyma was determined following brain capillary depletion (FIG. 6).
In situ perfusions using 125 nM of the cleavable and non-cleavable conjugates were performed, and uptake into the brain was measured. Inulin was used as a control. […] Kin values were measured for each protein: The cleavable conjugated has a Kin value of 1.1×10^−4 ml/s/g, the non-cleavable has a Kin value of 4.7×10^−5 ml/s/g, and inulin has a Kin value of 2.1×10^−5 ml/s/g.
Partition into brain compartments of the siRNA following capillary depletion was also measured. This perfusion was also performed at 125 nM.
In situ perfusions were also performed using fluorescent siRNA.

Row | Substance | transport into cells of tissues [1] | Kin (BBB) [mL/s/g]
1 | T F F Y G G S R G R R N N F R T E E Y (TFFYGGSRGRRNNFRTEEY) [AngioPep-7] | efficiently transported into liver, lung, kidney, spleen, and muscle cells | 
2 | inulin |  | 2.1e-05
